Laboratory results from US20040234623A1.

Target: rabbit anti-human IDO polyclonal antibody (raised against the KLH-conjugated peptide of SEQ ID NO: 1, affinity purified)
Experiment: flow cytometry of IFNgamma-activated monocyte-derived macrophages; antibody pre-adsorbed with immunizing peptide (competition against cellular IDO)

percent reduction of flow cytometry signal: > 95%
Binder: LIESGQLRERVEKLNMLC [immunizing peptide … (SEQ ID NO: 1), based on human IDO]
